Biological target: IL-8 receptors on human neutrophils
Assay: 125I-IL-8 competition with unlabelled IL-8, Scatchard analysis, human neutrophils

- binding sites/cell (binding sites/cell): 31000
Substance: human 72 amino acid IL-8 (interleukin-8), recombinant, made in E. coli (from UniProt P10145 28-99) (ligand)
